These results are taken from US20060239990A1, “Protein Arginine N-Methyltransferase 2 (PRMT-2)” (priority 2003, published 2006).

For experiment [1], the target named is T1, GST-Stat3 (Mus musculus, UniProt P42227).
T1 construct: The same region with the Arg31→Ala mutant was generated from the wild-type pGEX6P-3 STAT3 construct; made in house; host or cells: E. coli (BL21 (DE3); Top10 One Shot)
The experiment is described as follows: In vitro methylation assay of GST-Stat3. It is filed as biochemical. The note with it: Flag fusion protein from transfected HEK293 cells, [3H]-AdoMet. As to the method: 293 cells were transiently transfected with expression vectors encoding Flag-tagged wild-type or mutant mouse PRMT2. After incubation for 48 hr, cells were lysed with 500 μl of RIPA buffer and 1.8 mg of 293 cell lysates was incubated with 40 μl of Anti-Flag M2 Affinity Gel (Sigma) for 3 hr at 4° C. Immune complexes were washed three times with lysis buffer without proteinase inhibitor and subjected to in vitro methylation reaction. Mouse fibroblasts were grown to 80% confluence on a 10 cm plate. Cells were washed and scraped off the plate into 500 μl of PBS (pH 7.4), and were lysed by sonication. After centrifugation at 15,000 rpm for 10 min at 4° C., the supernatants were used as the enzyme source. In vitro methylation reactions were performed by adding the immune complexes or cell lysates to 0.64 μg Histone and/or 1 μg of GST, GST-STAT3 or GST-STAT3 Arg31→Ala31 using 2 μCi of the methyl donor S-adenosyl-1[methyl-3H]methionine ([3H]-AdoMet) (Amersham Biosciences) in a final volume of 35 μl. The reactions were incubated for 1 hr at 4° C. and were terminated by addition of 3×SDS-loading buffer. […]

Experiment [2] deals with STAT3. Put plainly: STAT3 arginine methylation in transfected HEK293 cells. It is filed as cell-based. The note with it: 24 hr after transfection, α-metR immunoblot. As to the method:
Vascular smooth muscle cells (VSMC) were prepared from the thoracic aorta of 12-week-old-male wild-type and PRMT-2^−/− mice by the explant method. Mouse embryo fibroblasts (MEFs) were prepared from 13.5-day wild-type and PRMT-2^−/− embryos. VSMCs and MEFs were cultured in Dulbecco's modified Eagle's medium (DMEM) containing 10% fetal calf serum (FCS) at 37° C. in a humidified atmosphere of 95% air-5% CO2. The integrity of PRMT-2 expression in the established VSMCs and MEFs lines was confirmed by Western and immunofluorescence analysis (data not shown). Quiescent VSMC (3-5th passages) that had been serum-starved for 48 hr were used in the following experiments. HEK293 cells were also grown in DMEM plus 10% FCS and were transiently transfected with FuGENE6 transfection reagent (Roche Applied Science, Indianapolis, Ind.) according to the manufacture's protocol. For each transfection, 2 μg of expression construct for mouse PRMT-2 and 8 μg for mouse STAT3 were used. After 24-48 hr of transfection, cells were used for the following experiments.
Immunoprecipitation of STAT3 was performed as follows. […]

T1 sequence (P42227 1-131 limits assumed): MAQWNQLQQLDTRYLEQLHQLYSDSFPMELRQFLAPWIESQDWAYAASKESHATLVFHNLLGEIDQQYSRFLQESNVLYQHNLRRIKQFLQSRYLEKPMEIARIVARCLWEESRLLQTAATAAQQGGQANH

B1: PRMT2-Flag: Flag-tagged wild-type mouse PRMT2 fusion protein purified from transfected HEK293 cells (protein)
chain: MEAPGEGPCSESQVIPVLEEDPVDYGCEMQLLQDGAQLQLQLQPEEFVAIADYTATDETQLSFLRGEKILILRQTTADWWWGERAGCCGYIPANHLGKQLEEYDPEDTWQDEEYFDSYGTLKLHLEMLADQPRTTKYHSVILQNKESLKDKVILDVGCGTGIISLFCAHHARPKAVYAVEASDMAQHTSQLVLQNGFADTITVFQQKVEDVVLPEKVDVLVSEWMGTCLLFEFMIESILYARDTWLKGDGIIWPTTAALHLVPCSAEKDYHSKVLFWDNAYEFNLSALKSLAIKEFFSRPKSNHILKPEDCLSEPCTILQLDMRTVQVPDLETMRGELRFDIQKAGTLHGFTAWFSVYFQSLEEGQPQQVVSTGPLHPTTHWKQTLFMMDDPVPVHTGDVVHGFCCVTKKSGMEKAHVCLSELGCHVRTRSHVSTELETGSFRSGGDS
modifications: left off: small tags and cut ends
notes: Flag-tagged wild-type mouse PRMT2 fusion protein purified from transfected HEK293 cells
B1: the “methylation of GST-Stat3” value in experiment [1] is reported as “could methylate GST-Stat3”.

B2: mutant PRMT-2: mutated PRMT-2 lacking functional Ado-Met domain (the PRMT-2-4A mutant according to b407) (protein)
chain: MATSGDCPRSESQGEEPAECSEAGLLQEGVQPEEFVAIADYAATDETQLSFLRGEKILILRQTTADWWWGERAGCCGYIPANHVGKHVDEYDPEDTWQDEEYFGSYGTLKLHLEMLADQPRTTKYHSVILQNKESLTDKVAAAAGCGTGIISLFCAHYARPRAVYAVEASEMAQHTGQLVLQNGFADIITVYQQKVEDVVLPEKVDVLVSEWMGTCLLFEFMIESILYARDAWLKEDGVIWPTMAALHLVPCSADKDYRSKVLFWDNAYEFNLSALKSLAVKEFFSKPKYNHILKPEDCLSEPCTILQLDMRTVQISDLETLRGELRFDIRKAGTLHGFTAWFSVHFQSLQEGQPPQVLSTGPFHPTTHWKQTLFMMDDPVPVHTGDVVTGSVVLQRNPVWRRHMSVALSWAVTSRQDPTSQKVGEKVFPIWR
In the case of B2, the Stat3 methylation result in experiment [2] was “failed to evoke STAT3 methylation”.
